Results from the DeepSol protein solubility set.

Assay: soluble on expression in E. coli; label from the status in PepcDB or PDB records

| Sequence | soluble on expression in E. coli |
| --- | --- |
| MQENSPLLQLQNVGYLAGDAKILNNINFSLRAGEFKLITGPSGCGKSTLLKIVASLISPTSGTLLFEGEDVSTLKPEIYRQQVSYCAQTPTLFGDTVYDNLIFPWQIRNRQPDPAIFLDFLERFALPDSILTKNIAELSGGEKQRISLIRNLQFMPKVLLLDEITSALDESNKHNVNEMIHRYVREQNIAVLWVTHDKDEINHADKVITLQPHAGEMQEARYELA | not soluble |
| MQEQLEKMFFLSAEFVEAVDARGMTEREKNVFFDTELFCKRYVKEVRPGEIGCTLSHQKCYRKLVESRDKYALILEDDIVIRHNIDTLVPEIEKLLNTDEPRVILLSGWYWYLGTKTIKQHYCLARVYDAFLTHAYIINREAASLLIEQRPFITADDWFYIRKKGVKLYAVLPHLLDQDWSGEYPTSINQEEKKRCPGLWKRKIEICFHSLLLKFLYIIKRFEKALEHHHHHH | not soluble |
| MQFFISSAILFSYAFCQSIPNVILTGEPRVVARRILNVDMKAAQQLALPDDQQHVRYQVNVVRNQENPSDSTYLTGERTPVTVYRRILRPARITFTGDGVITDSWQGTSDAVEMESWTLNRRPTIDGSFVQPTQNQQGAFH | not soluble |
| MQHHGVTKCNITCSKMTSKIPVALLIHYQQNQASCGKRAIILETRQHRLFCADPKEQWVKDAMQHLDRQAAALTRNG | soluble |
| MQIKAGLIWMNGAFVPQEEAKTSVLSHALHYGTSVFEGIRAYETAKGPAIFRLKEHVKRFYNSAKVLRMEIPFAPEELEEAIKEVVRRNGYRSCYIRPLAWMGAKALGVNPLPNNPAEVMVAAWEWGAYLGEEAVRKGARLITSSWARFPANVMPGKAKVGGNYVNSALAKMEAVAAGADEALLLDEEGYVAEGSGENLFFVRDGVIYALEHSVNLEGITRDSVIRIAKDLGYEVQVVRATRDQLYMADEVFMTGTAAEVTPVSMIDWRPIGKGTAGPVALRLREVYLEAVTGRRPEYEGWLTYVNGQ | soluble |
| MQIKLANPRGFCAGVDRAIEIVNRALEVFGPPIYVRHEVVHNKFVVEDLRSRGAIFVEELEQVPDDVIVIFSAHGVSQAVRTEAAGRGLKVFDATCPLVTKVHIEVARYSRDGRECILIGHAGHPEVEGTMGQYDAVNGGAIYLVEDEADVASLEVRNPESLAFVTQTTLSMDDTSRVIDALRKRFPAIGGPRKDDICYATQNRQDAVKQLADECDVVLVVGSPNSSNSNRLRELAERMATPAYLIDGAEDMQKGWFDGVERIGITAGASAPEVLVRGVIQQLQAWGATGADELAGREENITFSMPKELRVKSLLLEHHHHHH | not soluble |
| MQIPHGELRTLTYHSNALKSERQMYVWTPPGYSESSKPLPVLYFYHGFGDTGASAVVQGRIPQMMDNLLAEKKIEPMLVVIPDTETDVPGIIPEEYPPQERRKVFYPRNALAADRELIHDIIPAIGKRFNVRQDANGRALAGLSQGGYQALVSGMSHLDHFGWLATFSGVTTETVPNMAVAAQLERPEQINQQLKNLTVVIGETDNITGKDIAGLKTMLEQKNIRFDYTHYPNLGHEMDVWRPAYSEFVQKLFKLEHHHHHH | not soluble |
| MQKHFDCVLKHLLSRCCARRRESSFRPAPAGKVFLD | not soluble |
| MQKKSIYVAYTGGTIGMQRSDNGYIPVSGHLQRQLALMPEFHRPEMPDFTIHEYAPLIDSSDMTPEDWQHIANDIQQNYDLYDGFVILHGTDTMAFTASALSFMLENLAKPVIITGSQIPLAELRSDGQTNLLNALYLAANHPVNEVSLFFNNQLFRGNRTTKAHADGFDAFASPNLSVLLEAGIHIRRQSSVVSPTSNGPLIVHRITPQPIGVVTIYPGISGAVVRNFLLQPVKALILRSYGVGNAPQKAELLDELKNASDRGIVVVNLTQCISGSVNMGGYATGNALAQAGVISGFDMTVEAALTKLHYLLSQSLSPNEIRQLMQQNLRGELTDTQ | soluble |
| MQKLKQQVFDANMDLPRYGLVTFTWGNVSAIDRERGLVVIKPSGVAYETMKVDDMVVVDMDGKVVEGRYRPSSDTATHLALYQRYPSLGGVVHTHSTHATAWAQAGMAIPALGTTHADYFFGDIPCTRALSEEEVQGEYELNTGKVIIETLGEVEPLHTPGIVVYQHGPFAWGKDAHDAVHNAVVMEEVARMAWIARGINPALNPIDDYLMNKHFMRKHGPNAYYGQK | not soluble |
| MQKRVKEGPFTTEWIDLYLEEAVRKGIKEVGIVDHLYRFHEAKGYYEKYVDISDSKLGRIQKEWLDQVKVVSLYDFTKAIEEAKERWGKRGVTLKLGIEADYFIGCEGELKELLALGDFDYVIGSVHFLNGWGFDNPDTKEYFEVHDLRALYDMFFKTVESAIRTELFDIIAHLDNIKVFNYRLDENEQLSYYEEIACALVETNTATEINAGLYYRYPVREMCPSPLYLQVLAKYGVPITISSDAHYPNDLGNYVQENIQTLRAHGVTQVATFTKRARVMRSLEEEVTNSK | not soluble |
| MQKVCEKRIDSVVASAVEGSGMFYAVRFEPPPSKTCFDVTLKTYGPPYTEYIVTVAIPPKFPFSPPAITCKTDKNMKFLFLEENQWKPSTGIVAVLIEACSVISRRDLVPRAPVLPRIRPPQARTPTSASPAKSPQKAD | not soluble |
| MQLDRVDRKILNELYNDSRLSMRELAKRVNLSAPSTSERVRKLESEGVIQKYTIDIDYKKAGLVLDCILEITLKNGDTTRMQQFIQSYPSASFCYRVTGSLCYIVKISVPSLVELEEFINDVSSYATTVSHIVLSEVSLTPDIEHIFPED | not soluble |
| MQLQKLVNMFGGDLTRRYGQKVHKLTLHGGFSCPNRDGTIGRGGCTFCNVASFADEAHEHRSIAEQLAHQANLVNRAKRYLAYFQAYTSTFAEVQVLRSMYQQAVSQANIVGLCVGTRPDCVPDAVLDLLCEYKDQGYEVWLELGLQTAHDKTLHRINRGHDFACYQRTTQLARQRGLKVCSHLIVGLPGEGQAECLQTLERVVETGVDGIKLHPLHIVKGSIMAKAWEAGRLNGIELEDYTLTAGEMIRHTPPEVIYHRISASARRPTLLAPLWCENRWTGMVELDRYLNEHGVQGSALGRPWLPPTELEHHHHHH | not soluble |
| MQMSMLTRLHYFNCVVETGSISKASRIFDVQPSSISRQLTALEKELGVLLLKRTSRNIGLTEAGQTYYKYSQKIVSDLDEARCAVNDLQQKPKGNLKVSMAVGFAECCILPMIPTFTKLYPEINLELEMTGRVVDLVEENVDVAIRTGRLRDSNLIALKLTSNNFLLCASPQYITEHGTPKSPFNLTDFECIRYEYAGWRDWYLMNDKPTKLTIKSGLTVRSINGQKQLILNHAGLALMPKWSVINELDNGTLVQVLEQNIFSPYESMSSTYAIYLKRELISPKVRVFIDFIKDHIDYNS | not soluble |
| MQPDVSFAPDVSFVIASYNAEATLDRAIASAIAQKGVSVEIIVVDDQSRDATLDVARAYPGDIVRVVALAKNRGPGGARNAGLDVARGRWIAVLDSDDAVFPGRLAAMISRAEKADAQIAVDNLQVIREDGVVEDAMFPRQYLEGLREISLATYIAGNVVFESKFNLGYLKPIFQRRFLDENRLRYDEQLRIGEDYILFAEALAKGGRCVVEPAIGYAYHIRSGSISRVLELHHVEAMRKADAVFAQTHRMDEAAQVAFARRGRSLRKAASFLAMVQHIKARSPLKAIRTALSDPAAVRHMGMPIAVRLRRVAAQFAVGAGRLEHHHHHH | soluble |
| MQQRMGAMPMAVLYPQSYLPHSAVPCPAPGYGNMFSGYGAAPVMMMVAGNAPYPVNAHFGHSATPMYFAMDPANSAAPMAVVADAASVCATPKAKLAHSGSGNSLSTQSCCSGGETPSLLSRSAASSTVKQRPHHDVNVWGFALVDQLHPSLQRIPVPLSCLHEPTMGISLYDNNVMSSSTRPCKSSVCLLHAQGLGCAEGSRCRCFHVSSAYLMQCRATSESLCCALHNCYYSQEMLGANCAPHVSGRCYALSLDDASKFPQDGEKPYLINLSLLNLSLTVGLETLPCVNSVYVVSWKKHVCRLSMDGLCKWTKDCGHIHVCRQLTRFLQDAETLSIVKTLQERTRPKSSAELYRDIILSENTLRYVRSVAALSLVAALLEAGDVEALKTLARAKCALLPSQSEALQKLGIALSGSDSTRSVTVSPKLLALLTPKGTN | not soluble |
